Drawing on paper PMC2810249, this text covers Kd and fold drop in affinity against SH3(Y180E)/wild type SH2 for five molecules.

Square brackets hold non-standard residues; d marks the D form. pY = N[C@@H](Cc1ccc(OP(=O)(O)O)cc1)C(=O)O

Some targets named below: Itk SH3(E189Q) domain; Itk SH3(Y180E) domain; Itk SH3(E189K) domain; Itk SH2(I282A) domain.
Holding throughout (assay): NMR titration
Test [1] addresses Itk SH3 domain (wild type).

A word on the Kd: it is the equilibrium constant for the complex coming apart. High values mean lower affinity, low ones higher affinity. Consider “Itk SH2 domain (wild type) (domain or fragment)”, for which the Kd with Itk SH3(E189Q) domain was found to be 2.05 mM; in test [1], 0.67 mM.
As for “Itk SH2(K280A) domain (domain or fragment)”, in the test with Itk SH3(Y180E) domain, the fold drop in affinity against SH3(Y180E)/wild type SH2 worked out at 10 fold.
Take “Itk SH2(K309E) domain (domain or fragment)”: the Kd in the test with Itk SH3(E189K) domain was 1.08 mM; in test [1], 1.85 mM.
“Itk SH2(R332A) domain (domain or fragment)” had a Kd in test [1] of 1.8 mM.

B1: phosphopeptide derived from Slp76 (Ac-ADpYEPP-NH2) (peptide)
peptide: Ac-AD[pY]EPP-NH2
SMILES: CC(=O)N[C@@H](C)C(=O)N[C@@H](CC(=O)O)C(=O)N[C@@H](Cc1ccc(OP(=O)(O)O)cc1)C(=O)N[C@@H](CCC(=O)O)C(=O)N1CCC[C@H]1C(=O)N1CCC[C@H]1C(N)=O
B1 had an equilibrium dissociation constant (Kd) with Itk SH2(I282A) domain of 1 mM.
